Reference: publication doi:10.64898/2025.12.08.693004 (bioRxiv, 2025)

T1: Human EphB2-His (human, UniProt P29323 19-543)
T1 sequence (looked up): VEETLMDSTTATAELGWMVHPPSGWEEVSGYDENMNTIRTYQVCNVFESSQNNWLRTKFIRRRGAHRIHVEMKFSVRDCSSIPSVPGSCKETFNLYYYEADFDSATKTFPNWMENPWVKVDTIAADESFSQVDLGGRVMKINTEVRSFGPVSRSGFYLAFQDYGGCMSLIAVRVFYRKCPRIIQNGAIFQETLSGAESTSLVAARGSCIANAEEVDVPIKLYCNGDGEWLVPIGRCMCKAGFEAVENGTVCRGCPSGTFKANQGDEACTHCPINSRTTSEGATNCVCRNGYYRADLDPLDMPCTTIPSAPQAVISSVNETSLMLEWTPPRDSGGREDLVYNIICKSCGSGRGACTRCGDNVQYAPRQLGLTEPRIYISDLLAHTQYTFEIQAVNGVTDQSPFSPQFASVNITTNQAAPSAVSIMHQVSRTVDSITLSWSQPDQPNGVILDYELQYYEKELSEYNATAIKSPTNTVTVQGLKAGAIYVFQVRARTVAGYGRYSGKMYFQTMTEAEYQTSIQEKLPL

T2: Human EphB4-His (human, UniProt P54760 16-539)
T2 sequence (looked up): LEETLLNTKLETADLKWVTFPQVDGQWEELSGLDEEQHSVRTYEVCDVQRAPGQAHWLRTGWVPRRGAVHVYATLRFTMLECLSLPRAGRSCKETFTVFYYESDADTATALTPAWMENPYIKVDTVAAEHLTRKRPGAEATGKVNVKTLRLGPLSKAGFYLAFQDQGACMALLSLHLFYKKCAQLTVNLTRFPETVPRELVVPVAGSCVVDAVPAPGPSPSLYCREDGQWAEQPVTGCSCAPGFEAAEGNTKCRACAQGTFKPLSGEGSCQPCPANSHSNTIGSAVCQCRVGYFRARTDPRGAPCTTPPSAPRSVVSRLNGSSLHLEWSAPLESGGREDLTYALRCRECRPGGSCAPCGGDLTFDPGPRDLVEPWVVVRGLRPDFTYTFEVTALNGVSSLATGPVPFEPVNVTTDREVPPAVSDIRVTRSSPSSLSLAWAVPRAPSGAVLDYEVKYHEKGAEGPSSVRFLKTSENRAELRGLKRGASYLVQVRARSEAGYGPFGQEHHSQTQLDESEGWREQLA

T3: Human EphB1-His (human, UniProt P54762 18-540)
T3 sequence (looked up): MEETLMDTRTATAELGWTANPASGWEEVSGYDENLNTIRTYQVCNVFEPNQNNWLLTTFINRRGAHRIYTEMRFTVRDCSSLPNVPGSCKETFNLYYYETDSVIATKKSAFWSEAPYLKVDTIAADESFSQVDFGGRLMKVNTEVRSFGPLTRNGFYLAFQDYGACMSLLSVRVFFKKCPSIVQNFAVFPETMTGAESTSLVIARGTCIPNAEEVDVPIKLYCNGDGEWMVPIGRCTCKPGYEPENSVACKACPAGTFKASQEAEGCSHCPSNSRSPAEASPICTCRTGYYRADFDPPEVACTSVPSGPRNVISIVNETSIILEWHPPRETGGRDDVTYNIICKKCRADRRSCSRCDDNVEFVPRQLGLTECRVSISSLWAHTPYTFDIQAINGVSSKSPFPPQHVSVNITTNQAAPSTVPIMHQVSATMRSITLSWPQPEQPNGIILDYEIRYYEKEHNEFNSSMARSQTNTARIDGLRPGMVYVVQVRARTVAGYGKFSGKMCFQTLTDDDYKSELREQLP

T4: Human EphB3-Fc (human, UniProt P54753 38-550)
T4 sequence (looked up): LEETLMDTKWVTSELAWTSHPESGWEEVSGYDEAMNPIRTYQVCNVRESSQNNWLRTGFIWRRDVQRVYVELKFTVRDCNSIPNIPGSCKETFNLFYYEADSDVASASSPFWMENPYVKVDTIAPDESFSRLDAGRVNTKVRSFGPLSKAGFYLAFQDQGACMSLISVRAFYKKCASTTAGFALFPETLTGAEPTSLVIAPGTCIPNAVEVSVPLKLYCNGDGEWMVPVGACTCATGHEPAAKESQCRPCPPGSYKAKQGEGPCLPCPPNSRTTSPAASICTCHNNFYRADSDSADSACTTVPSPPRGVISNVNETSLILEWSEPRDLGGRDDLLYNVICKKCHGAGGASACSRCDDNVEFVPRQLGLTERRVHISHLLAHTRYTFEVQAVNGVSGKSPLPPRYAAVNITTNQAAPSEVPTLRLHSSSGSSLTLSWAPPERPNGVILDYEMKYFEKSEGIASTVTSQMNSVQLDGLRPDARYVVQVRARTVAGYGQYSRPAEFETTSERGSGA

T5: Rat EphB1-Fc protein (rat, UniProt P09759 18-538)
T5 sequence (looked up): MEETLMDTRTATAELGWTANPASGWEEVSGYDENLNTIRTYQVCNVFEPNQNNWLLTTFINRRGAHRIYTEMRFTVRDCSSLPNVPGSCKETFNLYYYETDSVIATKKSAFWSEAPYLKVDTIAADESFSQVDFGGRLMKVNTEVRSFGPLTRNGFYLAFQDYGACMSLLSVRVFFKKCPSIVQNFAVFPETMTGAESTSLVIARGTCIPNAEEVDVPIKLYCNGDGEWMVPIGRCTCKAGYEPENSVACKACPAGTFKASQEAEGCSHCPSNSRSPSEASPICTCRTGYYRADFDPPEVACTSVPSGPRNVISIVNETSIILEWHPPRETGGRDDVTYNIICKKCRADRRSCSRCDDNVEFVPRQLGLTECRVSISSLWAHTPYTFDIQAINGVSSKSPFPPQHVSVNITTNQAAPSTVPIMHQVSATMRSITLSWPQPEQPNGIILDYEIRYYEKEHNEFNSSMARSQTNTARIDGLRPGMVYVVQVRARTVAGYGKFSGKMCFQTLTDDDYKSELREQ


Columns and labels:
Assay in all cases: BLI
Human EphB2-His = target: T1, Human EphB2-His
Human EphB4-His = target: T2, Human EphB4-His
Human EphB1-His = target: T3, Human EphB1-His
Human EphB3-Fc = target: T4, Human EphB3-Fc
Rat EphB1-Fc protein = target: T5, Rat EphB1-Fc protein

| Binder | binding result (Human EphB2-His) | binding result (Human EphB4-His) | binding result (Human EphB1-His) | binding result (Human EphB3-Fc) | binding result (Rat EphB1-Fc protein) |
| --- | --- | --- | --- | --- | --- |
| Human EphrinB2-Fc (Fc fusion, UniProt P52799 28-229, looked up) IVLEPIYWNSSNSKFLPGQGLVLYPQIGDKLDIICPKVDSKTVGQYEYYKVYMVDKDQADRCTIKKENTPLLNCAKPDQDIKFTIKFQEFSPNLWGLEFQKNKDYYIISTSNGSLEGLDNQEGGVCQTRAMKILMKVGQDASSAGSTRNKDPTRRPELEAGTNGRSSTTSPFVKPNPGSSTDGNSAGHSGNNILGSEVALFA | binds | binds | binds |  |  |
| Mouse EphrinB2-His protein (ligand, UniProt P52800 29-232, looked up) RSIVLEPIYWNSSNSKFLPGQGLVLYPQIGDKLDIICPKVDSKTVGQYEYYKVYMVDKDQADRCTIKKENTPLLNCARPDQDVKFTIKFQEFSPNLWGLEFQKNKDYYIISTSNGSLEGLDNQEGGVCQTRAMKILMKVGQDASSAGSARNHGPTRRPELEAGTNGRSSTTSPFVKPNPGSSTDGNSAGHSGNNLLGSEVALFA |  |  |  | binds | binds |
